The numbers were not newly measured in publication PMC3210788, which cites them from elsewhere.

This series concerns the target VEGFR-1 (Mus musculus) (UniProt P35969).
Chain of UniProt P35969 (P35969 23-1333 S1181G): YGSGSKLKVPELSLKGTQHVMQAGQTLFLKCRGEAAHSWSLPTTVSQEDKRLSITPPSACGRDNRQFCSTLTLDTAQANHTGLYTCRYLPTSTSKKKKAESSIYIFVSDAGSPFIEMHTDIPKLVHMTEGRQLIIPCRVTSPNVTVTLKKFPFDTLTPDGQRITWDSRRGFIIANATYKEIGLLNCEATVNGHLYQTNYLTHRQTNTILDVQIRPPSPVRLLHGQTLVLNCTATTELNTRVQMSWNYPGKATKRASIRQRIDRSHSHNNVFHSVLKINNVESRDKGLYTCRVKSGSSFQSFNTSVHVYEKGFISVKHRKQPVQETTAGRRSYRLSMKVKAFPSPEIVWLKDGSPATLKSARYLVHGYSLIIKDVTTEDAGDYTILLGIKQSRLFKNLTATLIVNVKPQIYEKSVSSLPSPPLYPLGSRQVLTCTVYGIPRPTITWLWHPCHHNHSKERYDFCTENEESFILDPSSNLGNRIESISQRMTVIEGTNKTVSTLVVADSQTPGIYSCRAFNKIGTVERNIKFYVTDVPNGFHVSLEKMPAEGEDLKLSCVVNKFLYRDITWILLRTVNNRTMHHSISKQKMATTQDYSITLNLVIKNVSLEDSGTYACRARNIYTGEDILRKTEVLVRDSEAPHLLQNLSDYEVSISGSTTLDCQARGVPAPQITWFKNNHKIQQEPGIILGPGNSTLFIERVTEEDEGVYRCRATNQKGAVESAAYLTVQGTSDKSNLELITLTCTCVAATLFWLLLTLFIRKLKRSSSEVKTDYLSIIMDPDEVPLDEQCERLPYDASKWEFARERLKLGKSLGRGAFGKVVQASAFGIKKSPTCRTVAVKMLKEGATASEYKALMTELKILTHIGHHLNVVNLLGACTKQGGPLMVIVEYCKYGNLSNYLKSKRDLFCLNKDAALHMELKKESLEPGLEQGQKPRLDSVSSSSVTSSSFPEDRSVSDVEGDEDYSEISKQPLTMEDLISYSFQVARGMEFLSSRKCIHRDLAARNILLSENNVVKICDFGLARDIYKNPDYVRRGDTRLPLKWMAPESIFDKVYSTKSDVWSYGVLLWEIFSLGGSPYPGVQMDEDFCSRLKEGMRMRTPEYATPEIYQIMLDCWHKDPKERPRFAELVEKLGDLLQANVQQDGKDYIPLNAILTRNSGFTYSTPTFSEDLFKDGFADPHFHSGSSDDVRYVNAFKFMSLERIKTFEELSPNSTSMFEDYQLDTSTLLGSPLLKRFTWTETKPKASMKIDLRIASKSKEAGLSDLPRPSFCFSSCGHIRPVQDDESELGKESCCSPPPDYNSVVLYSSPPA

As a reminder, the Kd is a measure of binding affinity in units of concentration. As for VEGF (from UniProt Q00731), the Kd is 0.033 nM.
